Assay results: the DeepSol protein solubility set

Assay: soluble on expression in E. coli; label from the status in PepcDB or PDB records

| Sequence | soluble on expression in E. coli |
| --- | --- |
| MGSDKIHHHHHHMHHVVGVRFKKAGKIYYFSPGDLDIPRGESVIVETSRGVEYGNVVIEKKTVGDNDVVLPLKQVIRVATEKDKLAVQENKEAAKKAYDVCVQKIMEHQLDMKLVDVEYTFDRNKVLFYFTADGRIDFRELVKDLASVFRTRIELRQIGVRDEAKMLGGIGPCGRILCCSSFLGDFEPVSIKMAKDQNLSLNPAKISGLCGRLMCCLKYENDMYESAKQELPDLGETIDTPHGKGKVVGLNMLERLVQVHLFEGERVLEFSLEELLERGAVSAEATE | not soluble |
| MSLGKHVTIGFAGPQADHGWLNAINDNAKSRAKKYGDVTLEITEGSNDTAAQIGQIETLINKKVDVLVVLPADGKALTQVGLKAMRAGIPVVNLDRIFNSPQAYRCWIGGDNYGMGLSAGRYIGEKLKDKPNARVVELAGLDNLELTKQRTQGFDAALKNYPNIRKVARQAAEFTVESGQSKMAQLLQAQSRFDALWNHDDDQGVGALRAIKQAGRDDFLMVGGAGALSAFQAIKADDGVLKATVLYPPTMAASAIDLARALGQGKGVGGLAEFEIPASLTLYSAVVDKDNVGQYMSTGFREGHHHHHH | soluble |
| HMMQSWSAPAIPVVPGRGPALRLFDSADRQVRPVTPGPTATMYVCGITPYDATHLGHAATYLTFDLVHRLWLDAGHTVQYVQNVTDVDDPLFERAERDGIDWRTLGDRETQLFREDMAALRVLPPHDYVAATDAIAEVVEMVEKLLASGAAYIVEDAEYPDVYFRADATAQFGYESGYDRDTMLTLFAERGGDPDRPGKSDQLDALLWRAERPGEPSWPSPFGRGRPGWHVECSAIALTRIGTGLDIQGGGSDLIFPHHEYSAAHAESVTGERRFARHYVHTGMIGWDGHKMSKSRGNLVLVSQLRAQGVDPSAIRLGLFSGHYREDRFWSNEVLDEANARLARWRSATALPEAPDATDVIARVRQYLADDLDTPKALAALDGWCTDALSYGGHDTESPRLVATTVDALLGVDL | soluble |
| SLLPNILLTGTPGVGKTTLGKELASKSGLKYINVGDLAREEQLYDGYDEEYDCPILDEDRVVDELDNQMREGGVIVDYHGCDFFPERWFHIVFVLRTDTNVLYERLETRGYNEKKLTDNIQCEIFQVLYEEATASYKEEIVHQLPSNKPEELENNVDQILKWIEQWIKDHNS | soluble |
| MTDTIKIYHNPRCSKSRDTLNLLKSNGVEPEVVLYLDTPADAATVRELLRMLGMSSARELMRQKEDLYKTLHLADSELSEEALIQALVEHPKLMERPIVVANGQARIGRPPEQVLDILG | not soluble |
| MEHLRRFDRVAGAVTQAMREGRIGFSLQQVNAVDDTGEVLYSECLGRLVERDGAVRTSEEFTAFLEASGRVASFDRYMVGLAFEWLDCNPSGVLGCDISAGNIFDENTWSELYDLLSRNREMASRLVLEITECLPLATLPTAAEFIEGARALGYRIALDSFGTGHSTPESLLSVPVDIVKLDAFFIGRGQGVGKGKGFLHHLVGLASCVAPTVIIEGIETYGQLEAVKKAGATHVQGFLLSEPTLYPVYCGQPAPLPAAKPRSAGSRQLHS | not soluble |
| MGVETLNKVFKIAKKFYTDIRYYSFQLACIHLGETFSRYTKFNLADKYYLKKDKIVLNYLRTRYTNSPKQDVYGGVPKIYQPIWVFWYQGEEQMPKLVSACLKSVRNNANGHEVILISKENMNNYIEIPDVIRDRVESKKISMAQYSDIIRMCLLAEYGGLWIDATVLVTQLIPQYIFELPLFTIKNSPNQEDPLYFISVSHLRWTTYVMGGEPNNALFTFVRDLLIEYNSVENALIDYLLIDYAIELAIEKNSSISDDMIKIPINNQLKEEFVHRLFSVYPDCKTKELLQSGTIFFKLSYKKVAPKVIEKNNYQLLVDGDLCQAYNMGNLEHHHHHH | not soluble |
| MSLFKSQTAILPEAGPFALYTLLKVRQNHAHVLQALKALPALVEEINQNQPGAELTVSVAFSKGFWSHFEMASPPELIDFPELGEGETHAPSTDVDVLIHCHATRHDLLFYTLRKGISDIAQDIEIVDETYGFRYLDARDMTGFIDGTENPKAEKRAEVALVADGDFAGGSYVMVQRFVHNLPAWNRLNLAAQEKVIGRTKPDSVELENVPAASHVGRVDIKEEGKGLKIVRHSLPYGSVSGDHGLLFIAYCHTLHNFKTMLESMYGVTDGKTDQLLRFTKAVTGAYFFAPSQVMLQELTLKNQEGGSHHHHHH | soluble |
| MPKITVYTGKEVLQIDAKEGSSLLDILAENSLYVEAPCGGKGICGKCKVAVKKDGKPYLENITKEEKRLLTSDELQKGIRLCCNLKVFESLEVFLPHSKIGAKILSGLYTLEHHHHHH | not soluble |
| MGSDKIHHHHHHMLDAQHIQALKEIVGEENCFDDKAHKLAYCYDATRNRYEPDAVIFPRCEEDVSRLLAYCNTHKITIVPRGAGSGFTGGSLPVNGGIVLAFEKHMNKILEIDMENMVARVQPGVVNKRLQEAVEAMGLFYPPDPASEEYSTLGGNVSENAGGMRAAKYGITKDYVMALRAVLPNGDIIRAGKKTIKDVAGYNIAGILIASEGTLAVITEITLKLLSKPKLRQSAMGVFPTIESAMNAVYKTMAAGVTPVAMEFLDNLTIRAVESKFSKGLPVEAGAILITDMDGNLPEEIELQMAKIEEKFKENGALSFKKAASEEEAKDLWFARRNASQSVTIYGKKKLNEDITVPRSKLPELLQRINAISERYGVKTPCFGHTGDGNVHVNVMVEDGSDPKQLEIGHQAIEEIFKAAVELEGTLSGEHGIGISKAPFMHLAFTPEEMNLFRAIKQAFDPNNILNNGKMAL | not soluble |
| MDVLEISKKILHEGPVCDHCMGRQFAKLSTGLSNRERGQAVKLALALEGDRIYKSENDDSLLKELAPCSALARKTLRIEGENEQCWVCLDQFKKLDFWAEEAAKALEGLEYSTFLVGTKVSGLLSENEEILWAEAGTAYAEQLKTELNREVGKRIAERVNKEVDFENPDIVITLDLATNKFELQVRSVYIYGRYLKKVRGIPQTRWPCRKCRGKGCEKCGFTGKQYPESVDELIKGPVVEAFEAVDTAFHGSGREDIDALMLGSGRPFVVEAKSPVKRSADLEALAAKINENAAGKVEVRDLRFVEKGMIETLKSSKADKTYKLKVTFKEPVSEEKLKSCLESLNGTEIAQQTPKRVVHRRADLIRKRYVHSITLNELTDDGYAYITVNCEGGLYVKELISGDEGRTNPSLTGLLGIPALVEDLDVVNVEILEHHHHHH | soluble |
| MGSDKIHHHHHHMLWRLKGVPFVGFDVARVRGLYTSLGDGWTYLNSHQIPQVPERVASGVAAAFRTHAQISEVTSQPIAVDQLEAAREAVASLAGVDPDCVVLGPTRQFLAHTLARGLGGFVRRKAGVVLSRADADWLTAPFRSLDGVFSWAEPDLGTGMLPDWQYEKLVDGSTRLVVLSAAHPLLGTVAPVGKIVDKVRARSRAWVLVDATTYAAYRPLRLDEWEADIVMLDLGELGGPQISALIFRDTSMFPRLDRTVPLELPASSLPHGLLGGVPNLVRHLGNLDENAPSVVEAMGEMAKFHKGLFEHLVESLEGLHAVHIVGISGDAAGQDAAFLDRVPRLTFTMEGVPADMVYRRLVDNRLITTVSPADPLLEAMGVTEAGGSITIGLSPFSTYYEVDQLTRVLASLA | not soluble |
| MGSDKIHHHHHHMEENKQTLYNDELLDILPDGVIIFNISGEVIQLNRQALTELHVHSSVNAMMPLPTNILFKLLNNKEDILSVILEKIRQGEQTYSLSEHTFMQEQVDYTQFPIRGDFATIKEDGNLKKILFFFRNITVELTQEYILNTALQRTRIYPWYYDINRSEFTLDNRYFEHLGISAGENNTLTMEEYVNMIHPDDRQAMADAFIVQLSGMETFDKSVPFRLHRGDGTWEWFEGQSTYIANISGHPYRLVGICMSIQEYKDIENTLIEARKKAEESDRLKMAFLANMSHEIRTPLNAIVGFSDVIGSTYDELSEEERADFVRLISINSEHLVRLIDDVLDLSKIESNTIKFTFTDCSLRSLMIDVEKEQTMKPISEIEIRALLPNEDVYINTDATRLKQVISNFINNARKFTEKGYIHFGYAVDSVDASSVHVFVEDTGSGIPKECQKEIFDRFYKVDTFKQGTGLGLSICKTIVEHLQGDISVESEMGKGSRFIVTLPFERQTED | not soluble |
| MSLNEESYLVNRGKGVVRYDVVQVPSNSPIEDDHAEKIVEVPASTSAANEGQSSSDWMFWAVFDGHSGWTTSAKLRNVLISYVARELNATYKSASSDPSLVLPSSEAVDAAIKQGFVRLDNDIVHGSVNQVFKSNSRRAAAELLAPALSGSCALLAFYDSQTRDLKVACAGDSRAVLGRRSENGKWTATPLSEDQTGGTPSEMKRLREEHPGEPNVVRNGRILGQLEPSRSFGDAFYKWSKETQEKIKRQFFGRTPHPLLKTPPYVTAEPIITTTKVDPSQGDFLVLATDGLWEMLSNEEVVGLVGQWIEEQKAAAGAGTGNKSWVRSLFGSQPTEGHHHHHH | soluble |
| MNEMWLHRADLAESAINERHASRLWMLPRTNLAVVAWPPTAKERLFYRWHYWWQAHYLDCLIDAASRRTTKARKQRIRDTIVGIRLRNLGRLTKNNYYDDKSWLALALDRERRLNKRAKREYLRVLEGNIAAGQDDIQGVLPWRVGEHFFNVPTNGPAAIMLARNGEVEQARKLVDWIFDNLINDKGLVMDGLRMSMRGPEIVDPVYPYCQGVVIGACIEIAEALPFEESVQYLAHARAVIHAVAKEMATPEGVINAATGDGDGGLFKGILMRYLADAAVRLPEDGPANIATKKIAKRLVMASAESVWEHRLEVDGLPVFATDWCDDARLPHNYGVGGSALSDIVRVVRIDERDLSVQLSGWMLLEAAARVSLVDLEHHHHHH | soluble |
| MTGVLVGCSVEKTNTNKVNIDKVEIVAPNVQGAGWDLTARAMQKTLTEEKIFTKPITVTNKVGGSGDVGWKYTKQKGGHVLAINSSLLITNNLLGHSKLTYKDFTPLATLASDWEVVVVSKDSNIENANQLMEQLKQNKKNFKIGVAPGLGNDDHLSFVQVSKAFGINPAELQFFVYENKEKIISALTNKQINAATMTLSEAEKQYKAGKIKILAVSAPKRIDRLPQIPTWKEQGIDVIFQHWKGIMGPKDMTEEEVAYWDDVIKRMVESDSWKGILRERGWESFYKGSGESSGWYGGMIKTEKVDEEGSYRMRFLGLFIGNLIYS | not soluble |
| MSLQRESLDILKLSQAIKKCDAILIGAGAGLSSAAGLSYSGNRFKKYFNDFITKYHLQDMYSAGFYPYPSLEKYWAYWSRHIYYNRYLEAPKDTYKKLLNLLINKDYFVITTNVDHQFQIAGFIKEKLFYTQGDYGLWQCSKPCHQKTYDNYETVVTMIKQQHDLKIPSSLIPYCPICNAPMTMNLRCDKTFVQDSGWYHAQERYYHFLNKYHYSKIVYLELGVGYNTPGIIKYPFWQLTIENPKAIYACINQDIIDLPSELKKQTIMINDNIHNVLSSLEKLLEGHHHHHH | soluble |
| MAKDIEISASESKFILEALRQNYRLDGRSFDQFRDVEITFGKEFGDVSVKMGNTKVHCRISCQIAQPYEDRPFEGLFVISTEISPMAGSQFENGNITGEDEVLCSRIIEKSVRRSGALDVEGLCIVAGSKCWAVRADVHFLDCDGGFIDASCIAVMAGLMHFKKPDITVHGEQIIVHPVNEREPVPLGILHIPICVTFSFFNPQDTEENIKGETNSEISIIDATLKEELLRDGVLTVTLNKNREVVQVSKAGGLPMDALTLMKCCHEAYSIIEKITDQILQLLKEDSEKRNKYAAMLTSENAREI | soluble |
| MSLSEEDLEKFLIKELTLQGYERLNLSDINDLESNFKLQLQRLNNISFSPTEWESFYRQNITNLKLTFEDKTKMLQSDGFTLTLEKEDGSKKNIILIDRVNPINNHLQVISQLKNENGEFKNRYDVSILVNGLPLVHIELKRRGVNLKEAFNQIRRYQKESFLEGNALYEFVQIFIISNGTLTKYYSNTNEGHHHHHH | soluble |
